Experimental data: publication PMC3347535, “D-Arabinose Methabolism: Characterization of Bifunctional Arabinokinase/Pyrophosphorylase of Leishmania major” (Acta Naturae, 2009)

System: O=P(O)(O)OC1OC[C@@H](O)[C@@H](O)[C@@H]1O
Assay: purified protein
Details: GDP-D-Arap pyrophosphorylase reaction; GTP co-substrate; exogenous arabinose phosphate; kinetic assay conditions not given

LmjF16.0480 (Leishmania major)
Km: 67.0 mM
